# T1: FITC labeled BCMA (acrobiosystem, Cat. No. BCA-HF254) (UniProt Q02223 1-54, FITC labeled (site not stated))
# T1 construct: Soluble labeled protein used to stain CAR-T cells; also called BCMA antigen protein; BCMA protein
# T1 sequence (looked up): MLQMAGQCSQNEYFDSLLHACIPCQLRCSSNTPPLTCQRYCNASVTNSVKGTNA
# Target: T1, FITC labeled BCMA (acrobiosystem, Cat. …)
# Assay: flow cytometry, CAR-T cells stained with FITC labeled BCMA
# Protocol: After culturing at 37° C. and 5% CO₂ for 10 days, FITC labeled BCMA (acrobiosystem, Cat. No. BCA-HF254) was used for binding specific staining, and the ability of the corresponding CAR-T cells to specifically bind to the BCMA antigen protein was detected by flow cytometry, which also reflected the expression level of the CAR molecule.
row,Binder,binding result
1,"chimeric antigen receptor comprising humanized anti-BCMA single domain antibody BH86_V1, on CAR-T cells (other) QVQLVESGGGLVQAGESLRLSCAASGRAISSIVMAWWRQTPGAEREFVASINRWGGTPYYSDSVKGRFTISRDNSKNTLYLQMNSLRAEDTAVYYCAAASTLDSGYDYWGQGTLVTVSTTTPAPRPPTPAPTIASQPLSLRPEACRPAAGGAVHTRGLDFACDIYIWAPLAGTCGVLLLSLVITLYCKRGRKKLLYIFKQPFMRPVQTTQEEDGCSCRFPEEEEGGCELRVKFSRSADAPAYQQGQNQLYNELNLGRREEYDVLDKRRGRDPEMGGKPRRKNPQEGLYNELQKDKMAEAYSEIGMKGERRRGKGHDGLYQGLSTATKDTYDALHMQALPPR",binds
2,"chimeric antigen receptor comprising humanized anti-BCMA single domain antibody BH86_GKV3, on CAR-T cells (other) QEVLVESGGGLVQPGGSLRLSCAASGRAISSIVMAWWRQTPGAEREFVASINRWGGTPYYSDSVKGRFTISRDHAKNTLYLQMNSLKSADTAVYYCAAASTLDSGYDYWGQGTQVTVSTTTPAPRPPTPAPTIASQPLSLRPEACRPAAGGAVHTRGLDFACDIYIWAPLAGTCGVLLLSLVITLYCKRGRKKLLYIFKQPFMRPVQTTQEEDGCSCRFPEEEEGGCELRVKFSRSADAPAYQQGQNQLYNELNLGRREEYDVLDKRRGRDPEMGGKPRRKNPQEGLYNELQKDKMAEAYSEIGMKGERRRGKGHDGLYQGLSTATKDTYDALHMQALPPR",binds
3,"chimeric antigen receptor comprising humanized anti-BCMA single domain antibody BH86_GKV2, on CAR-T cells (other) QEVLVESGGGLVQPGGSLRLSCAASGRAISSIVMAWWRQTPGAEREFVASINRWGGTPYYSDSVKGRFTISRDHAKNTLYLQMNSLKSADTAVYYCAAASTLDSGYDYWGPGTQVTVSTTTPAPRPPTPAPTIASQPLSLRPEACRPAAGGAVHTRGLDFACDIYIWAPLAGTCGVLLLSLVITLYCKRGRKKLLYIFKQPFMRPVQTTQEEDGCSCRFPEEEEGGCELRVKFSRSADAPAYQQGQNQLYNELNLGRREEYDVLDKRRGRDPEMGGKPRRKNPQEGLYNELQKDKMAEAYSEIGMKGERRRGKGHDGLYQGLSTATKDTYDALHMQALPPR",binds
4,"chimeric antigen receptor comprising humanized anti-BCMA single domain antibody BH86_V4, on CAR-T cells (other) QVQLVESGGGLVQAGESLRLSCAASGRAISSIVMAWWRQTPGAEREFVASINRWGGTPYYSDSVKGRFTISRDNSKNTLYLQMNSLRAEDTAVYYCAAASTLDSGYDYWGHGTLVTVSTTTPAPRPPTPAPTIASQPLSLRPEACRPAAGGAVHTRGLDFACDIYIWAPLAGTCGVLLLSLVITLYCKRGRKKLLYIFKQPFMRPVQTTQEEDGCSCRFPEEEEGGCELRVKFSRSADAPAYQQGQNQLYNELNLGRREEYDVLDKRRGRDPEMGGKPRRKNPQEGLYNELQKDKMAEAYSEIGMKGERRRGKGHDGLYQGLSTATKDTYDALHMQALPPR",binds
5,"chimeric antigen receptor comprising humanized anti-BCMA single domain antibody BH86_GKV1, on CAR-T cells (other) QEVLVESGGGLVQPGGSLRLSCAASGRAISSIVMAWWRQTPGAEREFVASINRWGGTPYYSDSVKGRFTISRDHAKNTLYLQMNSLRAEDTAVYYCAAASTLDSGYDYWGHGTQVTVSTTTPAPRPPTPAPTIASQPLSLRPEACRPAAGGAVHTRGLDFACDIYIWAPLAGTCGVLLLSLVITLYCKRGRKKLLYIFKQPFMRPVQTTQEEDGCSCRFPEEEEGGCELRVKFSRSADAPAYQQGQNQLYNELNLGRREEYDVLDKRRGRDPEMGGKPRRKNPQEGLYNELQKDKMAEAYSEIGMKGERRRGKGHDGLYQGLSTATKDTYDALHMQALPPR",binds
6,"chimeric antigen receptor comprising humanized anti-BCMA single domain antibody BH86_V6, on CAR-T cells (other) QVQLVESGGGLVQAGESLRLSCAASGRAISSIVMAWWRQTPGAEREFVASINRWGGTPYYSNSVKGRFAISRDNSKNTIHLQMNSLRSEDTAVYYCAAASTLDSGYDYWGHGTLVTVSTTTPAPRPPTPAPTIASQPLSLRPEACRPAAGGAVHTRGLDFACDIYIWAPLAGTCGVLLLSLVITLYCKRGRKKLLYIFKQPFMRPVQTTQEEDGCSCRFPEEEEGGCELRVKFSRSADAPAYQQGQNQLYNELNLGRREEYDVLDKRRGRDPEMGGKPRRKNPQEGLYNELQKDKMAEAYSEIGMKGERRRGKGHDGLYQGLSTATKDTYDALHMQALPPR",binds
7,"chimeric antigen receptor comprising humanized anti-BCMA single domain antibody BH60_V3, on CAR-T cells (other) EVQLVESGGGLVQPGGSLRLSCVVSGGIFTINDMAWVRQAPGKGLEWVAHISRSGSTYYRDSVKGRFTISRDNAKNSLYLQMNSLRAEDTAVYYCNSIDRPLSYGQGTLVTVSSTTTPAPRPPTPAPTIASQPLSLRPEACRPAAGGAVHTRGLDFACDIYIWAPLAGTCGVLLLSLVITLYCKRGRKKLLYIFKQPFMRPVQTTQEEDGCSCRFPEEEEGGCELRVKFSRSADAPAYQQGQNQLYNELNLGRREEYDVLDKRRGRDPEMGGKPRRKNPQEGLYNELQKDKMAEAYSEIGMKGERRRGKGHDGLYQGLSTATKDTYDALHMQALPPR",binds
8,"chimeric antigen receptor comprising humanized anti-BCMA single domain antibody BH60_V1, on CAR-T cells (other) QVQLVESGGGLVQPGGSLRLSCAVSGGIFTINDMAWFRQAPGKQRELVAHISRSGSTYYRDSVKGRFTISRDNSKNTLYLQMNSLRAEDTATYYCNSIDRPLSYGQGTLVTVSTTTPAPRPPTPAPTIASQPLSLRPEACRPAAGGAVHTRGLDFACDIYIWAPLAGTCGVLLLSLVITLYCKRGRKKLLYIFKQPFMRPVQTTQEEDGCSCRFPEEEEGGCELRVKFSRSADAPAYQQGQNQLYNELNLGRREEYDVLDKRRGRDPEMGGKPRRKNPQEGLYNELQKDKMAEAYSEIGMKGERRRGKGHDGLYQGLSTATKDTYDALHMQALPPR",binds
9,"chimeric antigen receptor comprising humanized anti-BCMA single domain antibody BH60_GKV2, on CAR-T cells (other) QVQLVESGGGLVQPGGSLRLSCAASGGIFTINDMAWFRQAPGKQRELVAHISRSGSTYYRDSVKGRFTISRDNAKNSLYLQMNSLRAEDTAVYYCNSIDRPLSYGQGTQVTVSTTTPAPRPPTPAPTIASQPLSLRPEACRPAAGGAVHTRGLDFACDIYIWAPLAGTCGVLLLSLVITLYCKRGRKKLLYIFKQPFMRPVQTTQEEDGCSCRFPEEEEGGCELRVKFSRSADAPAYQQGQNQLYNELNLGRREEYDVLDKRRGRDPEMGGKPRRKNPQEGLYNELQKDKMAEAYSEIGMKGERRRGKGHDGLYQGLSTATKDTYDALHMQALPPR",binds
10,"chimeric antigen receptor comprising humanized anti-BCMA single domain antibody BH60_GKV1, on CAR-T cells (other) QVQLVESGGGLVQPGGSLRLSCVASGGIFTINDMAWFRQAPGKQRELVAHISRSGSTYYRDSVKGRFTISRDNAKNSLYLQMNSLRAEDTAVYYCNSIDRPLSYGQGTLVTVSTTTPAPRPPTPAPTIASQPLSLRPEACRPAAGGAVHTRGLDFACDIYIWAPLAGTCGVLLLSLVITLYCKRGRKKLLYIFKQPFMRPVQTTQEEDGCSCRFPEEEEGGCELRVKFSRSADAPAYQQGQNQLYNELNLGRREEYDVLDKRRGRDPEMGGKPRRKNPQEGLYNELQKDKMAEAYSEIGMKGERRRGKGHDGLYQGLSTATKDTYDALHMQALPPR",binds
11,"chimeric antigen receptor comprising humanized anti-BCMA single domain antibody BH60_V6, on CAR-T cells (other) QVQLVESGGGLVQPGGSLRLSCVVSGGIFTINDMAWFRQAPGKQRELVAHISRSGSTYYRDFVKGRFTISRDNSKNTSYLQMNNLRAEDTATYYCNSIDRPLSYGQGTLVTVSTTTPAPRPPTPAPTIASQPLSLRPEACRPAAGGAVHTRGLDFACDIYIWAPLAGTCGVLLLSLVITLYCKRGRKKLLYIFKQPFMRPVQTTQEEDGCSCRFPEEEEGGCELRVKFSRSADAPAYQQGQNQLYNELNLGRREEYDVLDKRRGRDPEMGGKPRRKNPQEGLYNELQKDKMAEAYSEIGMKGERRRGKGHDGLYQGLSTATKDTYDALHMQALPPR",binds
12,"chimeric antigen receptor comprising humanized anti-BCMA single domain antibody BH60_V5, on CAR-T cells (other) QVQLVESGGGLVQPGGSLRLSCVVSGGIFTINDMAWFRQAPGKQRELVAHISRSGSTYYRDFVKGRFTISRDNSKNTLYLQMNSLRAEDTATYYCNSIDRPLSYGQGTLVTVSTTTPAPRPPTPAPTIASQPLSLRPEACRPAAGGAVHTRGLDFACDIYIWAPLAGTCGVLLLSLVITLYCKRGRKKLLYIFKQPFMRPVQTTQEEDGCSCRFPEEEEGGCELRVKFSRSADAPAYQQGQNQLYNELNLGRREEYDVLDKRRGRDPEMGGKPRRKNPQEGLYNELQKDKMAEAYSEIGMKGERRRGKGHDGLYQGLSTATKDTYDALHMQALPPR",binds
13,"chimeric antigen receptor comprising humanized anti-BCMA single domain antibody BH86_V2, on CAR-T cells (other) EVQLVESGGGLVKPGGSLRLSCAASGRAISSIVMAWVRQAPGKGLEWVASINRWGGTPYYSAPVKGRFTISRDDSKNTLYLQMNSLKTEDTAVYYCAAASTLDSGYDYWGQGTLVTVSSTTTPAPRPPTPAPTIASQPLSLRPEACRPAAGGAVHTRGLDFACDIYIWAPLAGTCGVLLLSLVITLYCKRGRKKLLYIFKQPFMRPVQTTQEEDGCSCRFPEEEEGGCELRVKFSRSADAPAYQQGQNQLYNELNLGRREEYDVLDKRRGRDPEMGGKPRRKNPQEGLYNELQKDKMAEAYSEIGMKGERRRGKGHDGLYQGLSTATKDTYDALHMQALPPR",binds
